B1: FliCΔ204-292 (ligand)
chain: AQVINTNSLSLLTQNNLNKSQSALGTAIERLSSGLRINSAKDDAAGQAIANRFTANIKGLTQASRNANDGISIAQTTEGALNEINNNLQRVRELAVQSANSTNSQSDLDSIQAEITQRLNEIDRVSGQTQFNGVKVLAQDNTLTIQVGANDGETIDIDLKQINSQTLGLDTLNVQQKYKVSDTAATVTGYADTTIALDNSTFKAALTAAGVTGTASVVKMSYTDNNGKTIDGGLAVKVGDDYYSATQNKDGSISINTTKYTADDGTSKTALNKLGGADGKTEVVSIGGKTYAASKAEGHNFKAQPDLAEAAATTTENPLQKIDAALAQVDTLRSDLGAVQNRFNSAITNLGNTVNNLTSARSRIEDSDYATEVSNMSRAQILQQAGTSVLAQANQVPQNVLSLLR
B2: FliCΔ191-352 (ligand)
chain: AQVINTNSLSLLTQNNLNKSQSALGTAIERLSSGLRINSAKDDAAGQAIANRFTANIKGLTQASRNANDGISIAQTTEGALNEINNNLQRVRELAVQSANSTNSQSDLDSIQAEITQRLNEIDRVSGQTQFNGVKVLAQDNTLTIQVGANDGETIDIDLKQINSQTLGLDTLNVQQKYKVSDTAATVTGYLELEDGTSKTALNKLGGADGKTEVVSIGGKTYAASKAEGHNFKAQPDLAEAAATTTENPLQKIDAALAQVDTLRSDLGAVQNRFNSAITNLGNTVNNLTSARSRIEDSDYATEVSNMSRAQILQQAGTSVLAQANQVPQSVLSLLR
B3: Salmonella enterica Serovar Typhimurium ATCC14028 flagellin FliC (ligand)
chain: AQVINTNSLSLLTQNNLNKSQSALGTAIERLSSGLRINSAKDDAAGQAIANRFTANIKGLTQASRNANDGISIAQTTEGALNEINNNLQRVRELAVQSANSTNSQSDLDSIQAEITQRLNEIDRVSGQTQFNGVKVLAQDNTLTIQVGANDGETIDIDLKQINSQTLGLDTLNVQQKYKVSDTAATVTGYADTTIALDNSTFKASATGLGGTDQKIDGDLKFDDTTGKYYAKVTVTGGTGKDGYYEVSVDKTNGEVTLAGGATSPLTGGLPATATEDVKNVQVANADLTEAKAALTAAGVTGTASVVKMSYTDNNGKTIDGGLAVKVGDDYYSATQNKDGSISINTTKYTADDGTSKTALNKLGGADGKTEVVSIGGKTYAASKAEGHNFKAQPDLAEAAATTTENPLQKIDAALAQVDTLRSDLGAVQNRFNSAITNLGNTVNNLTSARSRIEDSDYATEVSNMSRAQILQQAGTSVLAQANQVPQNVLSLLR

Key:
[1] = molecular target: TLR5 of mice (mouse) (UniProt Q9JLF7); test: cell-based or functional assay
[2] = molecular target: TLR5 of mice (mouse, UniProt Q9JLF7 27-859); test: cell-based or functional assay
Sequence of TLR5 of mice (Q9JLF7 27-859): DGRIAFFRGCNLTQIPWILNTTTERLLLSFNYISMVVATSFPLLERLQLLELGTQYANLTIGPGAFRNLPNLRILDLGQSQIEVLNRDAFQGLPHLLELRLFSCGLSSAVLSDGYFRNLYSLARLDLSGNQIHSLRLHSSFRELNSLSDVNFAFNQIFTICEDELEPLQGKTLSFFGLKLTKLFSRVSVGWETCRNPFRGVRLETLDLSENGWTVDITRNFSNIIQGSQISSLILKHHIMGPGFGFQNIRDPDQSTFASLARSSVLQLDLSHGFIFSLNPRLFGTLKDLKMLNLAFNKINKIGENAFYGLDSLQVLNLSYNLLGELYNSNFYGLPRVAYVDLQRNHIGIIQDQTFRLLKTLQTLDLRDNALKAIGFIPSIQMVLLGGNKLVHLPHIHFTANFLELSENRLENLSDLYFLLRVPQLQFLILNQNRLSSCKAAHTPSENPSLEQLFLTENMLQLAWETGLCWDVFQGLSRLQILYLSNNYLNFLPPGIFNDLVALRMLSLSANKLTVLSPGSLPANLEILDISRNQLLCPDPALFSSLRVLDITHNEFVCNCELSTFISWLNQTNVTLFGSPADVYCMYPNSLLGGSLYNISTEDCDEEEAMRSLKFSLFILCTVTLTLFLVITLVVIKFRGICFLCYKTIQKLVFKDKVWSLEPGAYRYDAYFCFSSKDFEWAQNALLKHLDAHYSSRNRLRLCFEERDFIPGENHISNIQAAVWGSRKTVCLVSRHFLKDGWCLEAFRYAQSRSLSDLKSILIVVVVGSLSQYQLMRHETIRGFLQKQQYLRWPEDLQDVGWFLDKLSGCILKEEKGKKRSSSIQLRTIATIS

Sequence of TLR5 of mice (mouse) (Q9JLF7 27-859): as above

Row | Molecule | CCL20 mRNA pulmonary levels 2 h after i.n. instillation, against mock-treated animals [1] | serum CCL20 after 10 µg i.v. [1] | systemic pro-inflammatory effects (serum CCL20 and CXCL2 after i.v. injection), against wild type FliC [1] | CCL20 mRNA pulmonary levels 2 h after i.n. instillation, against mock-treated animals [2]
1 | FliCΔ174-400 flagellin (from UniProt P06175 2-493) (ligand) | 30 fold | 0.85 ng/mL | 100 fold | –
2 | B1 | – | – | – | ~30 fold
3 | B2 | – | – | – | ~30 fold
4 | B3 | – | – | – | ~30 fold

Source: patent publication US20110110962A1 (INSERM INSTITUT NATIONAL DE LA SANT ET DE LA RECHERCHE M …, published 2011)
